Where “and” joins values, the source holds several entries; their conditions need not be identical. Identical values can stand only once. Entries after “also recorded” stand apart in the source; their conditions may differ.
What was measured:
female Wistar rats [1] = test: Visual observation of injection site irritation; type: in vivo, rat; settings: ID administration, 3 times/wk for 24 weeks
From the text: (§1) Blood samples were collected once a week.
FIGS. 16A-B show injection site photos of IFN-β to female Wistar rats. Panel A is an intramuscular injection. The back of a rat's leg is shown. The injection was made into the hamstring muscle. Panel B is an intradermal injection on the rat's back. The “bleb” is circled. No irritation is evident in either photo. These photos were taken immediately post-injection.

female Wistar rats [2] = settings: rat, in vivo
female Wistar rats [3] = settings: rat, in vivo; remark: listed apart in the source
Method: MATERIALS AND METHODS: Antibody titers were evaluated using an ELISA assay. 100 μL of 1 μg/mL of rat interferon beta (Cell Sciences Inc. (Canton, Mass.)) in coating buffer was added to the wells of a 96 well plate. The plate was incubated at 4° C. overnight. Well contents were removed and the wells were blocked with 5% skim milk in PBST for 2 hours at 37° C. Wells were washed and 100 μL of serum samples were added to the first row of wells. Samples were serially diluted across the plate. The plate was incubated for 1 hour at 37° C. and washed. 100 μL of 1:4000 diluted, anti-rat HRP-conjugated antibody was added to each well and the plate was incubated for 30-60 minutes at 37° C. 100 μL of TMB color developer was added to each well. 200 μL of hydrochloric acid reaction stopper was added to each well. The plate was read at 450 nm. The antibody titer is the dilution giving 3 times absorbance of blank serum.
STUDY DESIGN: A chronic dosing regimen was performed in female Wistar rats using recombinant rat IFN-β (Cell Sciences Inc. (Canton, Mass.)). An injection route comparison was performed evaluating the immunogenicity of IFN-β upon injection intradermally or intramuscularly. IFN-β was injected intradermally using BD's 34 Ga, 1 mm needle and injected intramuscularly using BD 30 Ga×0.5″ to the hamstring muscle. […] Blood samples were collected once a week.

female Wistar rats [4] = test: Histological evaluation of injection site following IM and ID administration of interferon-beta; type: in vivo, rat
From the text: Sample Preparation: For ID injection, the skin was removed from each injection site and placed on a small card. The excised skin was approximately lcm in diameter with the needle insertion point in the center. The center of the injection was marked with black tattoo ink at time of injection to help identify the needle insertion point. Samples were placed in individual containers with 10% formalin for fixation. For IM injection, the needle insertion point was marked with black tattoo ink at the time of injection. The skin was carefully lifted and the muscle surface directly below the needle insertion point was marked with black tattoo ink. The hamstring muscle was collected and placed on a small card. Samples were placed in individual containers with 10% formalin for fixation. […]
Sample Identification: Samples are identified by the following system. In animals 801, 803, 804, 806, 807, 808, 809 and 810 intramuscular injections were made to the hamstring muscle of female Wistar rats. In animals 811, 812, 813, 814, 815, 816, 817, 818, 819 and 820 intradermal injections (approximately 1 mm deep) were made to the lateral dorsum of female Wistar rats.
Specimen Preparation: A single section was taken from each sample. Tissue was blocked to a size appropriate for sectioning. The section was taken through the needle insertion track. Sections were H&E stained and evaluated. If evidence of irritation was observed, further sections were taken to determine the extent of the irritation. Samples were graded on a multi-parameter irritancy scale. Histological alterations were graded on the following 5-grade scale: • Grade 0: Normal/Absent/None • Grade 1: Minimal/Cell Degeneration • Grade 2: Mild/Cell Necrosis • Grade 3: Moderate/Focal Erosion • Grade 4: Marked/Massive/Generalized Erosion • Present: Finding present/Severity not scored
In addition to the grading scale, descriptions of changes and findings were documented. Measurements were taken of the Width and Depth of any site irritation as well as skin thickness. Representative photos were taken of each condition.
Study Design: Rat interferon beta (Cell Sciences Inc. (Canton, Mass.)) was administered IM or ID in phosphate buffered saline using methods described supra. The animals were divided according to the following scheme:
Intramuscular Group—Day 1: The hair on the back and on the back of the rear leg was clipped. Injection was performed using a BD 30 G×0.5″ needle to the hamstring muscle. 50 μL was injected. The center of the injection was marked with black tattoo ink to help aid in injection track identification. Rats were returned to their cages for recovery.
Intramuscular Group—Day 2 (24 hrs. post-injection): Rats were euthanized by CO2 asphxiation and the skin from rear leg was removed. The muscle directly below the needle insertion point on the skin was marked with black tattoo ink. The hamstring muscle was excised, placed on small card and stored in 10% formalin solution.
Intradermal group-Day 1 The hair on the lateral dorsum was closely clipped. and injection was performed using a 1 mm BD microneedle. 50 μL was injected The center of the injection was marked with black tattoo ink to help aid needle track identification. Rats were returned to their cages for recovery.
[…] A 1 cm diameter margin of skin (full-thickness) around the injection site was excised. Skin was placed on a small card and stored in 10% formalin solution.

female Wistar rats [5] = test: Isotype specific (IgG1, IgG2b) antibody response against IFN-β by ELISA; type: in vivo, rat
Method: Isotype specific antibody responses against IFN-β were determined at weeks 2 and 24 post-injection using an ELISA Quantification Kit, commercially available from Bethyl Laboratories (Bethyl Inc., Montgomery, Tex.). A 96 well microtiter plate (Nunc Maxi-sorb plate) was coated with 1 μg/mL of IFN antigen and incubated overnight at 4° C. (to generate a standard curve wells were coated with 1 μL of capture antibody to 100 μL coating buffer); plates were washed with 50 mM Tris buffered saline, pH 8.0, 0.05% Tween (Sigma #T9039); 200 μL of Post Coat/Block solution (50 mM Tris buffered saline, pH 8.0, 1% BSA; Sigma #T6789) was added per well and incubated covered for 30 minutes at room temperature. Standards were prepared according to the package insert using the Sample/Conjugate Diluent (0.5 mL of 10% Tween 20; Sigma # P7949) per 100 mL of PostCoat/Block Solution; sample dilutions were made using the Sample/Conjugate Diluent; 100 μL of standard or sample was transferred to assigned wells and incubated for 1 hour at room temperature; conjugate was prepared according to package insert (1:20,000 for IgG1 and 1:40,000 for IgG2b); 100 μL of the conjugate was added per well and incubated for 1 hour at room temperature; 100 μL of TMB per well was added and incubated at room temperature for 30 minutes; 200 μL of 0.5 M H2SO4 per well was added to stop the reaction; plates were read at 450 nm.
as §1

[6] = ID injection, individual animals, marked grade

B1: IFN-β: recombinant rat IFN-β (Cell Sciences Inc., Canton, Mass.) (protein, UniProt P70499 22-184, looked up)
Interferon beta: IDYKQLQFRQSTSIRTCQKLLRQLNGRLNLSYRTDFKIPMEVMHPSQMEKSYTAFAIQVMLQNVFLVFRSNFSSTGWNETIVESLLDELHQQTELLEIILKEKQEERLTWVTSTTTLGLKSYYWRVQRYLKDKKYNSYAWMVVRAEVFRNFSIILRLNRNFQN
Female Wistar rats [1]
  acute or chronic injection site irritation (external, visual): No external acute or chronic injection site irritation
Female Wistar rats [2]
  mean IFN-β specific NAbs titers, IM vs ID: not significantly different
Female Wistar rats [3]
  animals with increase in titer from week 12: one
  animals with marked increase in titer from week 12: Three
  antibody response, ID vs IM: slightly stronger
  antibody response, IM vs ID: slightly higher
  antibody titers by ELISA, IM vs ID: not significantly different
  mean antibody response, IM vs ID: higher mean antibody response
  mean antibody titers by ELISA, IM vs ID (two sample t-test): not significantly different
Female Wistar rats [4]; 2 weeks
  cellular reaction, in general: minimal
Female Wistar rats [4]; 2 weeks, intradermal sites
  infiltration of injection sites with lymphocytes and neutrophils: minimally infiltrated
Female Wistar rats [4]; 2 weeks, intramuscular sites
  inflammatory cell infiltrates of injection sites, compared with intradermal sites: more prominent
Female Wistar rats [4]; 24 weeks, ID injection
  cellular reaction (inflammation): minimal to moderate
Female Wistar rats [4]; ID injection, individual animals 811-820, 24 hours post-injection
  Irritation Index: 3 and 2
Female Wistar rats [4]; [6]
  Dermis, leukocyte infiltration (per 40× field): Moderate - 51-100 (Moderate - 51-100)
  Edema grade: Absent
  Epidermis reaction grade: Normal, intact
  Vascular Congestion grade: Absent
Female Wistar rats [4]; ID sites
  overall irritation index designation / histopathological classification of irritation: minimal
Female Wistar rats [5]; week 2
  IFN-β specific IgG1 antibody, ID vs IM: only one animal showed any detectable IgG1 antibody; also recorded: higher
Female Wistar rats [5]; week 2, IM or ID
  IFN-β specific IgG2b antibody: no IgG2b was detectable
Female Wistar rats [5]; week 24
  mean IFN-β specific IgG2b concentration, ID vs IM: not significantly different; also recorded: comparable

Reference: patent US20050196380A1, “Method for delivering therapeutic proteins to the intradermal compartment” (priority 2004, published 2005)
